In PMC10143822, “Structural Adaptation of the Single-Stranded DNA-Binding Protein C-Terminal to DNA Metabolizing Partners Guides Inhibitor Design” (Pharmaceutics, 2023):
Where a SMILES comes first, the peptide text is derived from it. Primed or numbered codes have the meaning given here. Where no end group is shown, it is not given here. [ ]: non-standard residue; d: D form. 5,6‑carboxyfluorescein = 5,6-carboxyfluorescein; Phe(4-CF3) = N[C@@H](Cc1ccc(C(F)(F)F)cc1)C(=O)O; Phe(3-Cl) = N[C@@H](Cc1cccc(Cl)c1)C(=O)O; Phe(4-Cl) = N[C@@H](Cc1ccc(Cl)cc1)C(=O)O; β3hD = NC(CC(=O)O)CC(=O)O; Nle = CCCC[C@H](N)C(=O)O; Pip′ = not defined here

Tests used:
[1] = biological target: T1, ExoI (Escherichia coli, UniProt P04995); assay: biochemical; assay type: binding, E. coli
T1 construct: His-tag (cleaved yes); host or cells: E. coli BL21 (DE3) pLysS
Experimental: Triplicate measurements were performed using a Clariostar Plus Microplate Reader in 384-well plates for all fluorescence anisotropy (FA) experiments. The settings were 25 °C, excitation at 485 nm, emission at 510 nm, settling time of 0.2 s, and 200 flashes per well.
Competition fluorescence anisotropy experiments were carried out as follows: protein (0.5 μM either ExoI or RecO) was incubated with 50 nM F-wtSSB peptide and 0–500 μM unlabeled wtSSB (or a variant) peptide for 30 min at room temperature. For direct fluorescence anisotropy measurements, 16 µM ExoI and 7.5 µM RecO were used in the first well. After serial dilution, either 50 nM of F-mSSB or F-sSSB was added to the wells and then incubated for 30 min. Buffers used included 20 mM Tris-HCl (pH 8.0), 100 mM NaCl, 1 mM MgCl2, 1 mM 2-mercaptoethanol, 10% (v/v) glycerol, for ExoI and 20 mM Tris-HCl (pH 8.0), 200 mM NaCl, 1 mM 2-mercaptoethanol, 10% (v/v) glycerol, and 0.01% Triton-X 100 for RecO [37].
Fluorescence anisotropy values were normalized and are shown as bound fractions (BF, %). BF=r−rmin/λ(rmax−r)+r−rmin, I=2∗PG+S, r=S−PG/I, where r: anisotropy, I: total intensity, P: perpendicular intensity, S: parallel intensity, G: an instrument factor set to 1, BF: ligand fraction bound, and λ=λbound/λunbound=1 .
Competitive fluorescence anisotropy was analyzed in Origin Pro 9.5, and IC50 values were determined using the Logistic Nonlinear fit function and are shown as plots for each mutated position for each protein in Figures S4 and S6. EC50 values from direct fluorescence anisotropy titrations were plotted in Origin 9.5. Values were determined using the Logistics Nonlinear fit function.

[2] = biological target: T1, ExoI; assay: Isothermal titration calorimetry with ExoI; assay type: binding, E. coli
Experimental: Isothermal titration calorimetry (ITC) experiments were performed using a MicroCal VP-ITC titration microcalorimeter. ExoI was dialyzed extensively against the indicated buffer and cleared through centrifugation at 14,000 rpm for 15 min at 4 °C. RecO was subjected to a quick buffer exchange using an Amicon Ultra ultrafiltration device (Sigma). Protein concentrations were determined after the buffer exchange procedure.
The raw data were integrated using NITPIC [39]. The binding parameters, association equilibrium constant (KA), binding enthalpy (ΔH), and binding entropy (ΔS) were obtained by fitting the titration curves to a model of A + B = C in SEDPHAT [40]. Stoichiometry was fixed to 1:1 and the incompetent fraction was fitted for the protein concentration.

[3] = biological target: T2, Escherichia coli RecO (Escherichia coli, UniProt P0A7H3 1-242); assay: fluorescence polarisation; direct fluorescence anisotropy: RecO serially diluted from 7.5 µM, 50 nM fluorescein-labelled peptide, 30 min, 25 °C; 20 mM Tris-HCl pH 8.0, 200 mM NaCl, 1 mM 2-mercaptoethanol, 10% glycerol, 0.01% Triton-X 100; details: both partners purified
T2 construct: RecO of Escherichia coli, synthetic gene in pET28a+ with a TEV site at the 5' end; The His tag was cut off with TEV protease only for the purified protein; source: E. coli Rosetta, purified (Ni-NTA, heparin); also in cell lysate (pull-down); not shown: His tag, N-terminal, cleaved
T2 sequence: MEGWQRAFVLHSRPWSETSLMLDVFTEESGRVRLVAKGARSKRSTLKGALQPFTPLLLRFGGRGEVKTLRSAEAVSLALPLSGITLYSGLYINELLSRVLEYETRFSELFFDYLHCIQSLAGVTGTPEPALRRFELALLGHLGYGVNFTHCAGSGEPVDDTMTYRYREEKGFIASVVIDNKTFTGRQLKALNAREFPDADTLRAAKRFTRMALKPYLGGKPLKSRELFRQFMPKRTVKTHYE

[4] = biological target: T3, E. coli Exonuclease I (E. coli, UniProt P04995 1-471); assay: fluorescence polarisation; direct fluorescence anisotropy: ExoI serially diluted from 16 µM, 50 nM fluorescein-labelled peptide, 30 min, 25 °C; 20 mM Tris-HCl pH 8.0, 100 mM NaCl, 1 mM MgCl2, 1 mM 2-mercaptoethanol, 10% glycerol; details: both partners purified
T3 construct: Exonuclease I of E. coli, from plasmid pET14b-E. coli Exonuclease I (Addgene 104552); The His tag was cut off with thrombin only for the purified protein; also called ExoI; Exol; source: E. coli BL21 (DE3) pLysS, purified (Ni-NTA, heparin); also in cell lysate (pull-down)
T3 sequence: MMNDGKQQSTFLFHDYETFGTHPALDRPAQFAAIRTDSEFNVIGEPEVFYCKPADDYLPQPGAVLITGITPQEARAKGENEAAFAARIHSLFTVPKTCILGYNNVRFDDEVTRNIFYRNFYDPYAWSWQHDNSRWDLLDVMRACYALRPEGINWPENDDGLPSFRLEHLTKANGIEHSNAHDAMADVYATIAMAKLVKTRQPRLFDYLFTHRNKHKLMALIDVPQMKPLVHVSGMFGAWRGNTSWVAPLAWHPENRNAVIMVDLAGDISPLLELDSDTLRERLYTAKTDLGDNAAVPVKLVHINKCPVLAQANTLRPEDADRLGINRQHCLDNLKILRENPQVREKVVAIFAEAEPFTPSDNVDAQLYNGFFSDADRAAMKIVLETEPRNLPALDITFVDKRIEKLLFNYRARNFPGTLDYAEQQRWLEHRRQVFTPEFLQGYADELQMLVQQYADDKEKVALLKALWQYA

[5] = biological target: R2-sSSB with an N-terminal biotin tag, on Streptavidin DynaBeads (E. coli); assay: affinity purification with mass spectrometry; pull-down: 1 µM biotin peptide on Streptavidin DynaBeads, 30 min with E. coli lysate holding 1 µM recombinant ExoI or RecO; on-pellet tryptic digestion, nanoLC-MS/MS
[6] = biological target: T3, E. coli Exonuclease I; assay: ITC; peptide in the syringe titrated into ExoI in the cell; 20 mM Tris–HCl pH 8.0, 100 mM NaCl, 1 mM MgCl2, 4% glycerol, 1 mM β-mercaptoethanol; model A + B = C, stoichiometry fixed to 1:1, incompetent fraction fitted; details: both partners purified
[7] = biological target: T3, E. coli Exonuclease I; assay: fluorescence polarisation; competition fluorescence anisotropy: 0.5 µM ExoI, 50 nM F-wtSSB tracer, 0–500 µM unlabeled peptide, 30 min at room temperature, read at 25 °C; 20 mM Tris-HCl pH 8.0, 100 mM NaCl, 1 mM MgCl2, 1 mM 2-mercaptoethanol, 10% glycerol; details: both partners purified
[8] = biological target: T2, Escherichia coli RecO; assay: fluorescence polarisation; competition fluorescence anisotropy: 0.5 µM RecO, 50 nM F-wtSSB tracer, 0–500 µM unlabeled peptide, 30 min at room temperature, read at 25 °C; 20 mM Tris-HCl pH 8.0, 200 mM NaCl, 1 mM 2-mercaptoethanol, 10% glycerol, 0.01% Triton-X 100; details: both partners purified
[9] = biological target: T2, Escherichia coli RecO; assay: ITC; peptide in the syringe titrated into RecO in the cell; 50 mM HEPES pH 7.5, 50 mM NaCl, 25% glycerol, 1 mM TCEP; model A + B = C, stoichiometry fixed to 1:1, incompetent fraction fitted; details: both partners purified
[10] = biological target: T2, Escherichia coli RecO; assay: fluorescence polarisation; competition fluorescence anisotropy: 0.5 µM RecO, 50 nM F-wtSSB tracer, 0–500 µM unlabeled peptide, 30 min at room temperature, read at 25 °C; 20 mM Tris-HCl pH 8.0, 200 mM NaCl, 1 mM 2-mercaptoethanol, 10% glycerol, 0.01% Triton-X 100; details: both partners purified; remark: listed apart in the source
[11] = biological target: E1-sSSB with an N-terminal biotin tag, on Streptavidin DynaBeads (E. coli); assay: affinity purification with mass spectrometry; pull-down: 1 µM biotin peptide on Streptavidin DynaBeads, 30 min with E. coli lysate holding 1 µM recombinant ExoI or RecO; on-pellet tryptic digestion, nanoLC-MS/MS
[12] = biological target: T3, E. coli Exonuclease I; assay: fluorescence polarisation; competition fluorescence anisotropy: 0.5 µM ExoI, 50 nM F-wtSSB tracer, 0–500 µM unlabeled peptide, 30 min at room temperature, read at 25 °C; 20 mM Tris-HCl pH 8.0, 100 mM NaCl, 1 mM MgCl2, 1 mM 2-mercaptoethanol, 10% glycerol; details: both partners purified; remark: listed apart in the source

T1 sequence (P04995 whole entry): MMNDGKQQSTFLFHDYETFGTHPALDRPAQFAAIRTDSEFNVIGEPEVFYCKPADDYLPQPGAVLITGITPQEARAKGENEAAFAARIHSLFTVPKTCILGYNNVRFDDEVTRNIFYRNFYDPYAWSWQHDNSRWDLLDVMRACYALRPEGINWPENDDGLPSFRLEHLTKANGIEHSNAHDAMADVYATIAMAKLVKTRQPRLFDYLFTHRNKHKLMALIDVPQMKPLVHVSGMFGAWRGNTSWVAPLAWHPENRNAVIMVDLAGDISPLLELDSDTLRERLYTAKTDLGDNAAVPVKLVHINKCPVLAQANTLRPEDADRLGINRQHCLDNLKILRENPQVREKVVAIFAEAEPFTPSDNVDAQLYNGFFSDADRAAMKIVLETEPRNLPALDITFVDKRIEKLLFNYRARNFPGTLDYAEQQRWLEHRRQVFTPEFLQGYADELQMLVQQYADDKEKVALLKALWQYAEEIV

Molecule: CC[C@H](C)[C@H](NC(=O)[C@H](CC(=O)O)NC(=O)[C@H](CC(=O)O)NC(=O)[C@H](CC(=O)O)NC(=O)[C@H](Cc1ccc(C(F)(F)F)cc1)NC(=O)[C@H](CC(=O)O)NC(C)=O)C(=O)N1CCC[C@H]1C(=O)N[C@@H](Cc1ccc(C(F)(F)F)cc1)C(=O)O [E2-sSSB-Ct] (Ac-D[Phe(4-CF3)]DDDIP[Phe(4-CF3)]-OH)
- IC50 [1]: 350 nM
- Kd [2]: 40 nM

Molecule: {5,6‑carboxyfluorescein}-DFDDD[Nle]PF [F-nLe6 (fluorescein-labelled single mutant)]
- EC50 [3]: 200 ± 10 nM
- EC50 [4]: 200 ± 10 nM

B1: Escherichia coli RecO (natural protein)
chain: MEGWQRAFVLHSRPWSETSLMLDVFTEESGRVRLVAKGARSKRSTLKGALQPFTPLLLRFGGRGEVKTLRSAEAVSLALPLSGITLYSGLYINELLSRVLEYETRFSELFFDYLHCIQSLAGVTGTPEPALRRFELALLGHLGYGVNFTHCAGSGEPVDDTMTYRYREEKGFIASVVIDNKTFTGRQLKALNAREFPDADTLRAAKRFTRMALKPYLGGKPLKSRELFRQFMPKRTVKTHYE
- fold enrichment as compared to wtSSB-Ct [5]: 10 fold

B2: wtSSB-Ct, octapeptide identical to the SSB C-terminal acidic tip (residues 171-178 of SSB) (peptide)
peptide: Ac-DFDDDIPF
notes: also called wild-type SSB-Ct; source: synthetic peptide (solid phase, HPLC purified)
- Kd [6]: 3070 nM
- dH [6]: -10.7 kcal/mol
- stoichiometry N [6]: 0.959
- IC50 [7]: 4540 ± 340 nM
- IC50 [8]: 4660 ± 240 nM
- Kd [9]: 140 nM
- dH [9]: -7.54 kcal/mol
- stoichiometry N [9]: 1

B3: mSSB-Ct Leu6 (unlabelled single mutant) (peptide)
peptide: Ac-DFDDDLPF
notes: E. coli SSB C-terminal tip (SSB-Ct), residues 171-178; numbers count on: the octapeptide (position 1 = SSB residue 171); also called isoleucine to leucine at position 6; source: synthetic peptide
- IC50 [10]: 3220 nM

B4: E. coli Exonuclease I (enzyme)
chain: MMNDGKQQSTFLFHDYETFGTHPALDRPAQFAAIRTDSEFNVIGEPEVFYCKPADDYLPQPGAVLITGITPQEARAKGENEAAFAARIHSLFTVPKTCILGYNNVRFDDEVTRNIFYRNFYDPYAWSWQHDNSRWDLLDVMRACYALRPEGINWPENDDGLPSFRLEHLTKANGIEHSNAHDAMADVYATIAMAKLVKTRQPRLFDYLFTHRNKHKLMALIDVPQMKPLVHVSGMFGAWRGNTSWVAPLAWHPENRNAVIMVDLAGDISPLLELDSDTLRERLYTAKTDLGDNAAVPVKLVHINKCPVLAQANTLRPEDADRLGINRQHCLDNLKILRENPQVREKVVAIFAEAEPFTPSDNVDAQLYNGFFSDADRAAMKIVLETEPRNLPALDITFVDKRIEKLLFNYRARNFPGTLDYAEQQRWLEHRRQVFTPEFLQGYADELQMLVQQYADDKEKVALLKALWQYA
- fold enrichment as compared to wtSSB-Ct [11]: 2 fold

B5: R2-sSSB-Ct (Asp–4Cl-Phe–Asp–Asp–Asp–Ile–Pro–3Cl-Phe) (peptide)
peptide: Ac-D[Phe(4-Cl)]DDDIP[Phe(3-Cl)]
notes: SSB-Ct of E. coli SSB (residues 171-178), printed in three-letter code; F2 stands for 4Cl-Phe, F8 for 3Cl-Phe; numbers count on: the octapeptide (position 1 = SSB residue 171); source: synthetic peptide
- IC50 [10]: 590 nM
- Kd [9]: 40 nM
- dH [9]: -23.5 kcal/mol
- stoichiometry N [9]: 1

B6: fluorescein-labeled wtSSB-Ct (peptide)
peptide: {5,6‑carboxyfluorescein}-GGDFDDDIPF
notes: two glycines between the 5,6-carboxyfluorescein and the peptide; also called F-SSB-Ct; F-wtSSB-Ct; source: synthetic peptide (solid phase, HPLC purified)
- EC50 [3]: 370 ± 30 nM
- EC50 [4]: 350 ± 40 nM

B7: F-Glu5 (fluorescein-labelled single mutant) (peptide)
peptide: {5,6‑carboxyfluorescein}-GGDFDDEIPF
notes: two glycines between the 5,6-carboxyfluorescein and the peptide; E. coli SSB-Ct, residues 171-178; numbers count on: the octapeptide (position 1 = SSB residue 171); One of Compounds 54-62 of the Supplementary Material; also called F-mSSB Glu5; source: synthetic peptide
- EC50 [3]: 200 ± 20 nM
- EC50 [4]: 110 ± 10 nM

B8: E2-sSSB-Ct (Asp–4-CF3-Phe–Asp–Asp–Asp–Ile–Pro–4-CF3-Phe) (peptide)
peptide: Ac-D[Phe(4-CF3)]DDDIP[Phe(4-CF3)]
notes: SSB-Ct of E. coli SSB (residues 171-178), printed in three-letter code; F2 and F8 stand for 4-CF3-Phe; numbers count on: the octapeptide (position 1 = SSB residue 171); also called E2.SSB-Ct; source: synthetic peptide
- dH [6]: -13.4 kcal/mol
- stoichiometry N [6]: 0.885

B9: E1-sSSB-Ct (Glu–4-CF3-Phe–Asp–β^3-Asp–Glu–Leu–Pip–4-CF3-Phe) (peptide)
chain: Ac-E[Phe(4-CF3)]D[β3hD]EL[Pip′][Phe(4-CF3)]
modifications: not fully specified; printed as E1-sSSB-Ct (Glu–4-CF3-Phe–Asp–β^3-Asp–Glu–Leu–Pip–4-CF3-Phe)
- Kd [6]: 20 nM
- dH [6]: -17.4 kcal/mol
- stoichiometry N [6]: 1
- IC50 [12]: 170 nM

Molecule: Ac-DFDDD[Nle]PF [mSSB-Ct nLe6 (unlabelled single mutant)]
- IC50 [10]: 2550 nM
